pKd: −log10 of the molar value.
Legend:
Assay in all cases: SPR
[1] = target: Protein A, recombinant (UniProt P38507); details: aptamer immobilized; 100 mM NaCl, 20 mM Tris-HCl pH 7.6, 10 mM MgCl2, 5 mM KCl, 1 mM CaCl2, 0.005% surfactant P20, 21 °C (SPR Biacore X100)
[2] = target: Protein A, native (Staphylococcus aureus) (UniProt P38507); details: aptamer immobilized; 100 mM NaCl, 20 mM Tris-HCl pH 7.6, 10 mM MgCl2, 5 mM KCl, 1 mM CaCl2, 0.005% surfactant P20, 21 °C (SPR Biacore X100)
[3] = target: Protein A, native, biotinylated (Staphylococcus aureus) (UniProt P38507); details: protein immobilized, aptamer as analyte; 100 mM NaCl, 20 mM Tris-HCl pH 7.6, 10 mM MgCl2, 5 mM KCl, 1 mM CaCl2, 0.005% surfactant P20, 21 °C (SPR Biacore X100)

Sequence	pKd [1]	pKd [2]	pKd [3]
ATACCAGCTTATTCAATTAGCAACATGAGGGGGATAGAGGGGGTGGGTTCTCTCGGCTACAATCGTAATCAGTTAG [PA#2/8 (3'-biotin)]	7.04	7.70	–
ATACCAGCTTATTCAATTAGCAACATGAGGGGGATAGAGGGGGTGGGTTCTCTCGGCTACAATCGTAATCAGTTAG [PA#2/8 (unmodified)]	–	–	5.43
ATACCAGCTTATTCAATTAGCAACATGAGGGGGATGGAGGGGGTGGGTTCTCTCGGCTACAATCGTAATCAGTTAG [PA-C4]	6.65	–	–
ATACCAGCTTATTCAATTAGCAACATGAGGGGGGATAGAGGGGGTGGGTTCTCTCGGCTACAATCGTAATCAGTTAG [PA-C7]	5.79	–	–
ATACCAGCTTATTCAATTAGGCCAGATGAGGGGTGCCCATGGCGGGGTGGCTGCTCCAACAATCGTAATCAGTTAG [PA-C8 (3'-biotin)]	6.35	7.00	–
ATACCAGCTTATTCAATTGCGCACCACGGGAGTTGGCCACATTTGGAGTTGTTTTTGCACAATCGTAATCAGTTAG [PA-C10 (3'-biotin)]	5.56	6.23	–
ATACCAGCTTATTCAATTGGGCACCACGGGAGTCGGCCACATTTGGAGTTGTTTTTGCACAATCGTAATCAGTTAG [PA#14/89 (3'-biotin)]	5.58	6.33	–

Source: PMC5855864
